From patent publication US20210340273A1 (INHLBRX, published 2021)

Columns and labels:
[1] = target: T1, human 5T4 (trophoblast glycoprotein), endogenous on the cell surface (human, UniProt Q13641 32-420); assay: printed as Affinity 5T4; apparent affinity from flow cytometry titration on Ovcar-5 cells
T1 construct: also called TPBG; 5T4 oncofetal antigen
T1 sequence: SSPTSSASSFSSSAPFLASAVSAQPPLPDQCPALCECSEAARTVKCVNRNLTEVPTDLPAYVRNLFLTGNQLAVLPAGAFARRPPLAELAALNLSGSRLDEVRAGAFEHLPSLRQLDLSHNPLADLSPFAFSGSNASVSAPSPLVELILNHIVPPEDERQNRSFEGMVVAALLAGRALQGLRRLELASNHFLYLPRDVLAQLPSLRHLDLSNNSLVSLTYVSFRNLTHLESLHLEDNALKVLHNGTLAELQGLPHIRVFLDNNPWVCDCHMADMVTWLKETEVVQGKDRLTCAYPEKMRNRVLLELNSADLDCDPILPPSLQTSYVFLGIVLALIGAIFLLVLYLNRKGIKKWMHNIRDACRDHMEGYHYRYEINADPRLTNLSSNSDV
Protocol: Binding of exemplary 5T4-targeting constrained CD3 engaging constructs set forth in Table E3 to CD3 on the surface of primary T cells and 5T4 expressing cells (Ovcar-5) was assessed by flow cytometry. The T cells were primary T-cells that were negatively enriched from PBMCs isolated from healthy human donor leukopaks. Bound construct was detected with fluorophore-conjugated secondary antibodies specific for the human Fc (anti-human IgG APC secondary antibody) and binding was measured by flow cytometry. Cells incubated with secondary antibody only served as negative controls. The results, from flow cytometry histograms displaying normalized cell counts versus fluorescence at 200 nM of each construct, are shown in FIG. 4A (cx3253), FIG. 4B (cx3264), FIG. 4C (cx3497), FIG. 4D (cx3499), FIG. 4E (cx3547), FIG. 4F (cx3546), FIG. 4G (cx4224), FIG. 4H (cx4913), FIG. 4I (cx3265), […] (cx4912), FIG. 4K (cx3262), FIG. 4L (cx4911), and FIG. 4M (cx4910). […] However, as shown in the top right and bottom panels of each of the figures, the same constructs were not able to bind to T cells in isolation.
Table E4 summarizes the affinity of exemplary molecules for 5T4 or CD3, as determined from flow cytometry, in these studies.

[2] = target: T1, human 5T4 (trophoblast glycoprotein), …; assay: flow cytometry on 5T4-positive OVCAR5 (Ovcar-5) cells, anti-human IgG secondary; titration
Protocol: FIGS. 4A-4M depict the binding of various 5T4-target constrained CD3 engaging constructs to the 5T4 positive Ovcar-5 cell line (top left) and the lack of binding to primary human T-cells (top right). […] Binding was assessed by flow cytometry using an anti-human IgG APC secondary antibody. The histograms display the normalized cell counts vs fluorescence at 200 nM of each construct.
Binding of exemplary 5T4-targeting constrained CD3 engaging constructs set forth in Table E3 to CD3 on the surface of primary T cells and 5T4 expressing cells (Ovcar-5) was assessed by flow cytometry. The T cells were primary T-cells that were negatively enriched from PBMCs isolated from healthy human donor leukopaks. Bound construct was detected with fluorophore-conjugated secondary antibodies specific for the human Fc (anti-human IgG APC secondary antibody) and binding was measured by flow cytometry. Cells incubated with secondary antibody only served as negative controls. […] The results, from flow cytometry histograms displaying normalized cell counts versus fluorescence at 200 nM of each construct, are shown in FIG. 4A (cx3253), FIG. 4B (cx3264), FIG. 4C (cx3497), FIG. 4D (cx3499), FIG. 4E (cx3547), FIG. 4F (cx3546), FIG. 4G (cx4224), FIG. 4H (cx4913), FIG. 4I (cx3265), […] (cx4912), FIG. 4K (cx3262), FIG. 4L (cx4911), and FIG. 4M (cx4910). […]

[3] = target: T1, human 5T4 (trophoblast glycoprotein), …; assay: flow cytometry (FL4H median), sdAb-Fc titrated on 5T4-positive T47D cells
Protocol: (§1) Specificity and relative affinity were assessed for purified sdAb-Fcs on 5T4-expressing cells. Binding of 5T4-sdAb-Fc fusion proteins was assessed by flow cytometry using 5T4-expressing cells. A titration series of the fusion protein was incubated with the 5T4-expressing cell lines (approximately 2.5×10⁴ to 5×10⁴ cells/well) for 30 minutes at 4 degrees Celsius in FACS Buffer (PBS 1% BSA, 0.1% NaN₃ pH 7.4) in 96 well plates. Following three wash steps in FACS buffer, an APC-conjugated anti-human Fcγ specific secondary antibody (Jackson ImmunoResearch) was added and incubated for 30 minutes at 4 degrees Celsius. Following three additional wash steps in FACS buffer bound antibody was detected via flow cytometry (IQue Intellicyte).
(§2) Humanized variant of the 5T4 sdAbs were tested for their ability to bind 5T4 expressing cells substantially as described in Example 2, and binding was compared to the parental sdAb. 5T4 expressing T47D cells were used in these studies. Results are shown in FIGS. 2A-2F, which confirm binding of the humanized variants. In some cases, binding was increased compared to the parental sdAb.

[4] = target: T1, human 5T4 (trophoblast glycoprotein), …; assay: flow cytometry (FL4), sdAb-Fc titrated on HEK-293 freestyle (293FS) cells endogenously expressing 5T4
Protocol: FIGS. 1A-B depict the ability of various single domain antibodies targeting 5T4 to bind cell surface 5T4. Binding was assessed by flow cytometry on HEK-293 freestyle cells endogenously expressing 5T4.
as §1

[5] = target: T1, human 5T4 (trophoblast glycoprotein), …; assay: flow cytometry (FL4H median), sdAb-Fc titrated on 5T4-positive T47D cells; remark: listed apart in the source
Protocol: as §1, §2

[6] = target: T2, human 5T4 construct (Hu), full 5T4 coding region fused to an intracellular Citrine tag, on transfected CHO … (human, UniProt Q13641 32-420); assay: flow cytometry on CHO cells transiently transfected with the 5T4 construct
T2 construct: also called fully human construct; not shown: intracellular Citrine tag
T2 sequence: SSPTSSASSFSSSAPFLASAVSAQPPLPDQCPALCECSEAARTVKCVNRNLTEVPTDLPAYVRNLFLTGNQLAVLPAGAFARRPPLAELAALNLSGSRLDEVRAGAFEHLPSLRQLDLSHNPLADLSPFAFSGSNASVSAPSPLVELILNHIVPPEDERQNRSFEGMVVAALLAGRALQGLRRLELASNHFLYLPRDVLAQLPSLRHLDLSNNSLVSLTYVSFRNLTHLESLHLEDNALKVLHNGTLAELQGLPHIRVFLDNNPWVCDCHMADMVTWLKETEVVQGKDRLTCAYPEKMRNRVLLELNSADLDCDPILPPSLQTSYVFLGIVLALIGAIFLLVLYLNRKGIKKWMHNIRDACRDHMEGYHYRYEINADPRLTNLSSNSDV
Description: (§3) In order to determine the location of the epitope recognized by these sdAbs, various mouse:human chimeric 5T4 constructs were generated, wherein various portions of the murine extracellular domain of 5T4 were replaced with that of human 5T4. The constructs were generated by grafting a nucleic acid sequence encoding the specific region of human 5T4 into the cognate region of mouse 5T4 in a mammalian expression plasmid encoding the full 5T4 coding region (extracellular domain, transmembrane domain, intracellular domain) fused to an intracellular Citrine tag. […] CHO cells were transiently transfected with these constructs to enable cell surface expression, and binding was monitored by flow cytometry.

hmc5T4.1 = target: T3, hmc5T4.1; assay: as above
T3 construct: the rest is mouse 5T4; also called chimeric hmc5T4.1; hybrid mouse/human 5T4 with human residues 1-173 of the extracellular domain; not shown: intracellular Citrine tag fused to the full coding region
T3 chain: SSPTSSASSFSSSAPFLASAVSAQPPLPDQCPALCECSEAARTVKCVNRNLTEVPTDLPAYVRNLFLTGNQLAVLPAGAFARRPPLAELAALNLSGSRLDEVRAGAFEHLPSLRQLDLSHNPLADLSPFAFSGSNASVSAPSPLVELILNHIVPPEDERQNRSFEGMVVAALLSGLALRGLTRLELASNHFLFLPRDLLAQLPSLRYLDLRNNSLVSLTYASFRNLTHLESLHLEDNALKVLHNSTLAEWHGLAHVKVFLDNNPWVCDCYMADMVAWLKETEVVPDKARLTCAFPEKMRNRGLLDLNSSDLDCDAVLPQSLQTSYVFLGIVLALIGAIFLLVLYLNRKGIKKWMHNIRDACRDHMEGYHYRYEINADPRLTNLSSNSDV
Description: as §3

[7] = target: T4, murine 5T4 construct (Mu), full 5T4 coding region fused to an intracellular Citrine tag, on transfected CHO … (mouse, UniProt Q9Z0L0 32-426); assay: as above
T4 construct: also called fully murine construct; mouse 5T4 antigen; not shown: intracellular Citrine tag
T4 sequence: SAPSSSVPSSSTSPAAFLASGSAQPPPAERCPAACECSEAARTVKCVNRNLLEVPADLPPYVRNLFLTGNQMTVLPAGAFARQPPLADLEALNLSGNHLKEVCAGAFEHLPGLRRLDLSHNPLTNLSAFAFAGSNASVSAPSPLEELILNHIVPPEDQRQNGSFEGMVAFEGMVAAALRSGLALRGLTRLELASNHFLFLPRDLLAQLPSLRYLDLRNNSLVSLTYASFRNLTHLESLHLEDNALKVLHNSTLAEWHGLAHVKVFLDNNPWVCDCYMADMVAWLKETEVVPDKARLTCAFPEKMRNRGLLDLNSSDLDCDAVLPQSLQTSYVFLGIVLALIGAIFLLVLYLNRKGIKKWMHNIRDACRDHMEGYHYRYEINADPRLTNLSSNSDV
Description: as §3

B1: cx3497, 5T4-targeted constrained CD3 engaging construct with a 41BB binding domain (bispecific antibody)
chain 1: QVQLVQSGGGLVQAGGSLRLSCAASRRPFSSKTMAWFRQTPGKEREFVAAVRWIGGATRYTDSVKGRFSISKDNAINTVYLQMNSLKSEDTAVYYCAAGQAWGTKFTDYSDWGQGTQVTVKPDKTHTCPPCPAPELLGGPSVFLFPPKPKDTLMISRTPEVTCVVVDVSHEDPEVKFNWYVDGVEVHNAKTKPREEQYNSTYRVVSVLTVLHQDWLNGKEYKCKVSNKALPAPIEKTISKAKGQPREPQVYTLPPCRDELTKNQVSLWCLVKGFYPSDIAVEWESNGQPENNYKTTPPVLDSDGSFFLYSKLTVDKSRWQQGNVFSCSVMHEALHNHYTQKSLSLSPTGGSGGGGIEPDIGGSGGSEVQLVESGGGLVQPGGSLRLSCAASGFTFNTYAMNWVRQAPGKCLEWVARIRSKYNNYATYYADSVKGRFTISRDDAKNTLYLQMSSLRAEDTAVYYCVRHGNFGNSYVSWFAYWGQGTLVTVKPQVQLLQSGGGLVQAGGSLILSCAVSGRPFSSSAMGWFRQAPGKERETVAAVSRNGGSSYYADFVKGRFTISRDNDKNTVYLQMNSLKPEDTAVYYCAARSAAYSRSSETYTEKHDYTYWGQGTQVTVKP
chain 2: not shown
notes: Heterodimeric multispecific construct (5T4 x CD3 x 41BB)
Kd [1]: 0.646 nM
EC50 (read off the curve) [2]: ~0.7 nM

B2: cx3253, 5T4-targeted constrained CD3 engaging construct with a 41BB binding domain (bispecific antibody)
chain 1: QVQLVQSGGGLVQAGGSLRLSCAASRRPFSSKTMAWFRQTPGKEREFVAAVRWIGGATRYTDSVKGRFSISKDNAINTVYLQMNSLKSEDTAVYYCAAGQAWGTKFTDYSDWGQGTQVTVKPDKTHTCPPCPAPELLGGPSVFLFPPKPKDTLMISRTPEVTCVVVDVSHEDPEVKFNWYVDGVEVHNAKTKPREEQYNSTYRVVSVLTVLHQDWLNGKEYKCKVSNKALPAPIEKTISKAKGQPREPQVYTLPPCRDELTKNQVSLWCLVKGFYPSDIAVEWESNGQPENNYKTTPPVLDSDGSFFLYSKLTVDKSRWQQGNVFSCSVMHEALHNHYTQKSLSLSPTGGSGGGGIEPDIGGSGGSEVQLVESGGGLVQPGGSLRLSCAASGFTFNTYAMNWVRQAPGKCLEWVARIRSKYNNYATYYADSVKGRFTISRDDAKNTLYLQMSSLRAEDTAVYYCVRHGNFGNSYVSWFAYWGQGTLVTVKPQVQLVQSGGGLVQAGASLRLSCVASGRTRSLRTMAWFRQAPGKERIFVAAISWRSDSTYYADSVKGRFTISRDNAKNTAYLQMNTLKPEDTAVYYCAAGGGWLATTPDEYTYWGQGTLVTVKP
chain 2: not shown
notes: as for B1
Kd [1]: 0.12 nM

B3: 12E9 sdAb-Fc (Fc fusion, not shown: a dimerising Fc or GST)
chain: QVQLVQSGGGLVQAGGSLRLSCAASRRPFSSKTMAWFRQTPGKEREFVAAVRWIGGATRYTDSVKGRFSISKDNAINTVYLQMNSLKSEDTAVYYCAAGQAWGTKFTDYSDWGQGTQVTVKP
notes: Camelid derived sdAb tested as sdAb-Fc; also called L12E9; 12E9-Fc
EC50 (read off the curve) [3]: ~0.1 nM
EC50 (read off the curve) [4]: ~0.1 nM
EC50 (read off the curve) [5]: ~0.2 nM

B4: hz12E9v9 sdAb-Fc (Fc fusion)
chain: EVQLVESGGGEVQPGGSLRLSCAASGRPFSSKTMAWFRQAPGKEREFVAAVRWIGGATRYTESVKGRFTISRDNAKNTVYLQMSSLRAEDTAVYYCAAGQAWGTKFTDYSDWGQGTLVTVKP
notes: Humanized variant of 12E9; also called hz12E9v09; hz12E9v9-Fc; not shown: human Fc
EC50 (read off the curve) [6]: ~1 nM
EC50 (read off the curve) (hmc5T4.1): ~0.8 nM
binding result [7]: no binding (tested: about 500 nM)

B5: cx3499, 5T4-targeted constrained CD3 engaging construct with a 41BB binding domain (bispecific antibody)
chain 1: QVQLVQSGGGLVQAGGSLRLSCAASRRPFSSKTMAWFRQTPGKEREFVAAVRWIGGATRYTDSVKGRFSISKDNAINTVYLQMNSLKSEDTAVYYCAAGQAWGTKFTDYSDWGQGTQVTVKPDKTHTCPPCPAPELLGGPSVFLFPPKPKDTLMISRTPEVTCVVVDVSHEDPEVKFNWYVDGVEVHNAKTKPREEQYNSTYRVVSVLTVLHQDWLNGKEYKCKVSNKALPAPIEKTISKAKGQPREPQVYTLPPCRDELTKNQVSLWCLVKGFYPSDIAVEWESNGQPENNYKTTPPVLDSDGSFFLYSKLTVDKSRWQQGNVFSCSVMHEALHNHYTQKSLSLSPTGGSGGGGIEPDIGGSGGSEVQLVESGGGLVQPGGSLRLSCAASGFTFNTYAMNWVRQAPGKCLEWVARIRSKYNNYATYYADSVKGRFTISRDDAKNTLYLQMSSLRAEDTAVYYCVRHGNFGNSYVSWFAYWGQGTLVTVKPQVQLVQSGGGLVQAGDSLTLSCAVSERPFGTYAMGWFRQAPGRERDLVAAVSRNGGASQYGDSVKGRFSISRDNIKNTMYLQMNSLKPEDTAVYYCAARSAAYSRSSEVYTGKDEYYYWGQGTQVTVKP
chain 2: not shown
notes: as for B1
Kd [1]: 0.653 nM
EC50 (read off the curve) [2]: ~0.7 nM
